Experimental findings from patent US20170281764A1 (JN BIOSCIENCES, published 2017) are described below.

Assay [1] concerns the target T1, HA-tagged human TIGIT with mutation Q35A, on CHO-K1 cells (human, UniProt Q495A1 22-244).
T1 construct: Built as for m17
T1 sequence: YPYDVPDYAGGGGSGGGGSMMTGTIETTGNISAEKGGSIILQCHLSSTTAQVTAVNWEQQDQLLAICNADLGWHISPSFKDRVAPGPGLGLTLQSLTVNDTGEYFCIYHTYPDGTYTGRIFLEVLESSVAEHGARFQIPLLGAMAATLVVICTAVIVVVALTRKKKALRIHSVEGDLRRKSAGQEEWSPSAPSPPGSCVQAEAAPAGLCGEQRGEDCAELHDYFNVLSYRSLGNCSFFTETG
Nature of the assay: flow cytometry on CHO-K1 cells transiently expressing HA-tagged TIGIT mutant; Q35A mutant. As to the method:
(§1) For flow cytometry analysis of the anti-hTIGIT antibody binding epitope, HA-tagged human TIGIT proteins with or without single amino acid mutation were transiently transfected into CHO-K1 cells. After 24 hr, transfected cells were suspended in HBSS buffer (Thermo Fisher Scientific, Cat#14175095), and incubated with HuTIG1-IgG1.AA antibody at varying concentrations in 50 μL volume. After 1 hr incubation at 4° C., cells were washed and a second incubation with 50 μL Alexa488 conjugated anti-human IgG(H+L) secondary antibody (Thermo Fisher Scientific, Cat#A-11013) was performed to detect cells bound by antibody. Cells were incubated with an anti-HA antibody (Sigma, Cat# H7411) as a positive control, and non-transfected CHO-K1 cells were used as a negative control. The cells were analyzed on an Attune NxT Cytometer (Thermo Fisher Scientific) and the data were processed using FlowJo software. For each mutant, the saturating antibody binding MFI (mean fluorescence intensity) were normalized to 100% POC (percent of control), and no primary antibody binding control MFI were normalized to 0% POC. Data were then fit to a four parameter non-linear sigmoidal curve using GraphPad Prism 7 curve fitting using following formula: Y=Bottom+(Top−Bottom)/(1+10^{((Log EC}^₅₀^{-X)*HillSlope)}). […]

Assay [2] has as its target T2, extracellular region of human TIGIT fused to FLAG and GPI (hTIGIT-GPI), on the surface of NS0 cells (human).
T2 construct: The GPI signal is processed when the anchor is attached; also called NS0-hTIGIT cells
T2 chain: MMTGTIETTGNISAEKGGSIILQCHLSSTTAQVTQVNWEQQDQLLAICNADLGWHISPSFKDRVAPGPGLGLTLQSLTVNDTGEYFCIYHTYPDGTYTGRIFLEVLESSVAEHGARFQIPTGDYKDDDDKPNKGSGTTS
The assay can be described thus: flow cytometry, competition with hCD155-Fc-FITC (125 ng/ml) for NS0-hTIGIT cells. As to the method: The activity of HuTIG1-IgG1.AA to block the interaction between human TIGIT and human CD155 was analyzed by flow cytometry using NS0-hTIGIT cells. […] After washing with FACS Buffer, NS0-hTIGIT cells were subjected to flow cytometry using a FACScan flow cytometer (BD Biosciences, San Jose, Calif.). To examine the binding of hCD155-Fc-FITC on the cells, MCF was obtained at each antibody concentration. […] The half maximal inhibitory concentration (IC₅₀) of HuTIG1-IgG1.AA to block the TIGIT-CD155 interaction was 67 ng/ml.
A general note: In flow cytometry, cells or beads pass a laser one at a time.

The target in assay [3] is T3, His-tagged soluble recombinant human TIGIT (Cat # TIT-H52H3; Acro Biosystems) (human, UniProt Q495A1 22-141).
T3 construct: Bought reagent; not shown: His tag
T3 sequence (looked up): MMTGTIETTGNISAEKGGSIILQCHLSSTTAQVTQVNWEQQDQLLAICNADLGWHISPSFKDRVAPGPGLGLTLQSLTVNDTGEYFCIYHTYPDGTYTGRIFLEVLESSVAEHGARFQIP
Nature of the assay: SPR (BioRad ProteOn XPR36), antibody captured by anti-human IgG, soluble TIGIT as analyte, 25 °C, 1:1 model. The procedure: Biosensor studies for HuTIG1-IgG1.AA were run on a BioRad ProteOn XPR36 system in 10 mM HEPES, 150 mM NaCl, pH 7.4, 0.005% Tween-20 and 0.2 mg/ml BSA at 25° C. HuTIG1-IgG1.AA was diluted to 3.7, 1.2 and 0.4 nM and captured for 5 minutes onto a GLM sensor chip coated with ˜10,000 RU of GE's anti-human IgG antibody. His-tagged soluble recombinant human TIGIT (Cat # TIT-H52H3; Acro Biosystems, Newark, Del.) was tested at 100 nM as the highest concentration in a 3-fold dilution series down to 1.2 nM. The data from the three different density antibody surfaces were globally fit to a 1:1 interaction model using a local Rmax.

In assay [4] the target is T4, HA-tagged human TIGIT with mutation N49A, on CHO-K1 cells (human, UniProt Q495A1 22-244).
T4 sequence: T1 sequence with A54Q, N68A
The assay can be described thus: flow cytometry on CHO-K1 cells transiently expressing HA-tagged TIGIT mutant; N49A mutant. As to the method:
as §1

In assay [5] the target is T5, HA-tagged human TIGIT, wild type, transiently expressed on CHO-K1 cells (human, UniProt Q495A1 22-244).
T5 sequence: T1 sequence with A54Q
The assay can be described thus: flow cytometry on CHO-K1 cells transiently expressing HA-tagged human TIGIT; wild type TIGIT. The procedure:
as §1

Residue numbers refer to the chain shown, from its start. Names and notes keep the numbering of the source.

One may read the EC50 as the concentration that produces a half-maximal response. Read a low EC50 as greater potency. Broadly, the IC50 is the concentration that gives 50% inhibition. Lower therefore signals greater potency. By Kd is commonly meant the equilibrium constant for the complex coming apart. In general, koff refers to the rate constant with which the complex falls apart. As a reminder, the kon is a measure of how fast the partners come together.

B1: HuTIG1-IgG1.AA (humanized IgG1/kappa form of TIG1, L234A/L235A) (antibody)
heavy: not shown
light: DIQMTQSPSSLSASVGDRVTITCRASKSISKYLAWYQQKPGKAPKLLIYSGSTLQSGVPSRFSGSGSGTDFTLTISSLQPEDFATYYCQQHNEYPWTFGGGTKVEIKRTVAAPSVFIFPPSDEQLKSGTASVVCLLNNFYPREAKVQWKVDNALQSGNSQESVTEQDSKDSTYSLSSTLTLSKADYEKHKVYACEVTHQGLSSPVTKSFNRGEC
notes: Mature full chains; also called humanized TIG1
Consider B1, for which a half-maximal response in assay [1] (EC50) required 176 nM. In addition, the IC50 in assay [2] amounted to 0.067 µg/mL. In assay [3], the dissociation constant (Kd) amounted to 0.925 nM, the off-rate constant (koff) stood at 0.000409 s⁻¹ and the on-rate (kon) stood at 442000 M⁻¹ s⁻¹. The molecule also gave a half-maximal effective concentration (EC50) in assay [4] of 17.7 nM. For the same molecule, in assay [5], the half-maximal effective concentration (EC50) was found to be 1.28 nM.
